This note sets out measurements from doi:10.1101/421420.

For experiment [1], the target named is PmScsCΔLinker (Proteus mirabilis). Briefly: SAXS.
Experiment [2] has the same target. Briefly: crystal structure.
For experiment [3], the target named is Proteus mirabilis suppressor of copper sensitivity protein C (PmScsC) (Proteus mirabilis). Briefly: SAXS.

For the substance PmScsCΔLinker (enzyme), in experiment [1], the Kd (in general, a measure of binding affinity in units of concentration) was 200 µM; the percent dimer at 0.1 mg/mL was found to be 3%; the percent dimer at 10 mg/ml turned out to be 48%; the percent monomer at 0.1 mg/mL was determined as 97%. In experiment [1], the percent monomer at 10 mg/ml came to 40% and the percent trimer at 10 mg/ml turned out to be 12%. Moreover, the stoichiometry N (usually a count of units in the complex or per binding partner) in experiment [2] came to 3.
In experiment [3], “Proteus mirabilis suppressor of copper sensitivity protein C (PmScsC) (enzyme)” gave a percent present as monomer at 0.1 mg/mL of 1% and a stoichiometry N of 3.
